Results from publication PMC4230587.

Biological target: RSA-2 (C. elegans (endogenous in embryos)) (UniProt G5EFV3)
Test: co-IP

UniProt G5EFV3, sequence (G5EFV3 whole entry): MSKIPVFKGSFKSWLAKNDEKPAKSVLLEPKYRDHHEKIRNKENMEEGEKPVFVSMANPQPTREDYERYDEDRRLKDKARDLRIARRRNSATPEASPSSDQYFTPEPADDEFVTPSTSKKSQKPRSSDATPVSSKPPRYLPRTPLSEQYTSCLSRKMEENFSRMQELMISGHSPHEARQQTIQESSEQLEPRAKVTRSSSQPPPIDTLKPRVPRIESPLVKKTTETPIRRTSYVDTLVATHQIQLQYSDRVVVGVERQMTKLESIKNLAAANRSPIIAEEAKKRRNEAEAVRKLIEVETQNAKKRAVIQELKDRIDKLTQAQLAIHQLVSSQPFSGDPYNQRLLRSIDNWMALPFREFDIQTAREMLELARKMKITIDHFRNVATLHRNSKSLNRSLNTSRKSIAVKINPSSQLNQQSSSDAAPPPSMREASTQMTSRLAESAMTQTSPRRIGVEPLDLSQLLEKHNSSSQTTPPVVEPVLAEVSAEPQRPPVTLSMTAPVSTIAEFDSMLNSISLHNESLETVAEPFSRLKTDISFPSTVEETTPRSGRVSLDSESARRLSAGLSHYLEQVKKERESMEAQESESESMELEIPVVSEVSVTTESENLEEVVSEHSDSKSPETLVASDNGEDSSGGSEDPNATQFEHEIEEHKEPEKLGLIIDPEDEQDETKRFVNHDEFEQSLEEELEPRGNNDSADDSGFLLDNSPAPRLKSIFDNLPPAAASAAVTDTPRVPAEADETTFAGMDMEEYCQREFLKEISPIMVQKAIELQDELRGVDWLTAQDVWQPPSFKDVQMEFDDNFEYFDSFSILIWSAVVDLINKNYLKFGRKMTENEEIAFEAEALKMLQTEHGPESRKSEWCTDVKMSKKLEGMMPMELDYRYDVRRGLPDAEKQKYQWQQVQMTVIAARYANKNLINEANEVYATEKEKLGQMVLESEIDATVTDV

## SPD-5 (from UniProt P91349 1-1198) (natural protein)
  percent of total protein co-immunoprecipitated: 20%
